The results in this text go back to publication PMC7641760, “Evolution of a highly functional circular DNA aptamer in serum”.

As a reminder, the Kd is the free concentration of one partner at which half of the binding sites on the other are occupied at equilibrium, for simple one-to-one binding. A higher Kd goes with lower affinity.

Data set [1] has as its target T1, human alpha-thrombin (Homo sapiens, UniProt P00734;P00734 328-363;364-622). In words: competition; displaces 32P-CTBA4T (500 pM, thrombin 50 pM) at high concentration; exosite I; EMSA: 1x binding buffer (PBSMT pH 7.2: 137 mM NaCl, 2.68 mM KCl, 8.1 mM Na2HPO4, 1.76 mM KH2PO4, 1 mM MgCl2, 0.025% Tween-20), <50 pM 32P-DNA, 30 min; gel 10% n.
The target in data set [2] is T1, human alpha-thrombin. In words: EMSA; EMSA: 1x binding buffer (PBSMT pH 7.2: 137 mM NaCl, 2.68 mM KCl, 8.1 mM Na2HPO4, 1.76 mM KH2PO4, 1 mM MgCl2, 0.025% Tween-20), <50 pM 32P-DNA, 30 min; gel 10% n. For orientation: In EMSA bound probe runs differently from free probe, usually more slowly.
Data set [3] concerns the target alpha-thrombin (light; heavy chain) (Homo sapiens (Human), UniProt P00734;P00734 328-363;364-622, N-glycosylated (plasma); interchain disulfide). Kind of data set: EMSA; PBS pH 7.2, 1 mM MgCl2, 0.025% Tween-20; DNA <50 pM. The conditions noted are these: copies: 1;1; label: 32P.

Turning to GGTTGGTGTGGTTGG (structured_DNA) [TBA15], the binding result in data set [1] is “binds”.

B1: CTBA4T-B1 (structured_DNA)
DNA: ATCTCGAGTCATAGGGGGCGCGAACATACGCGGTTGGTGTGGTTGGCTGACTCGT
modifications: circular (5'-3' ligated)
Regarding B1, in data set [2], the Kd is 0.019 nM.

B2: CTBA4T (structured_DNA)
DNA: ATCTCGACTAGTCATAGGGGGCGCGAACATACGCGGTTGGTGTGGTTGGCTGACAATACTCGT
modifications: circular (5'-3' ligated)
For the molecule B2, the Kd in data set [2] is 0.023 nM. The Kd values of the last two molecules are within 1.5-fold of each other.

B3: CTBA4T (structured_DNA)
DNA: ATCTCGACTAGTCATAGGGGGCGCGAACATACGCGGTTGGTGTGGTTGGCTGACAATACTCGT
modifications: circular (3'-5' ligated)
In the case of B3, in data set [3], the Kd came out at 0.023 nM.
